Results on two molecules are retold here after paper PMC9949273 (The Journal of Cell Biology, 2023).

First the molecules themselves.
B1: GST-tagged ATL3 (natural protein, human, UniProt Q6DD88 1-541, looked up)
chain: MLSPQRVAAAASRGADDAMESSKPGPVQVVLVQKDQHSFELDEKALASILLQDHIRDLDVVVVSVAGAFRKGKSFILDFMLRYLYSQKESGHSNWLGDPEEPLTGFSWRGGSDPETTGIQIWSEVFTVEKPGGKKVAVVLMDTQGAFDSQSTVKDCATIFALSTMTSSVQIYNLSQNIQEDDLQQLQLFTEYGRLAMDEIFQKPFQTLMFLVRDWSFPYEYSYGLQGGMAFLDKRLQVKEHQHEEIQNVRNHIHSCFSDVTCFLLPHPGLQVATSPDFDGKLKDIAGEFKEQLQALIPYVLNPSKLMEKEINGSKVTCRGLLEYFKAYIKIYQGEDLPHPKSMLQATAEANNLAAAASAKDIYYNNMEEVCGGEKPYLSPDILEEKHCEFKQLALDHFKKTKKMGGKDFSFRYQQELEEEIKELYENFCKHNGSKNVFSTFRTPAVLFTGIVALYIASGLTGFIGLEVVAQLFNCMVGLLLIALLTWGYIRYSGQYRELGGAIDFGAAYVLEQASSHIGNSTQATVRDAVVGRPSMDKKAQ
B2: His6-tagged N-terminal cytoplasmic domain of ATL2 (1–480) (domain or fragment, human, UniProt Q8NHH9 1-480, looked up)
chain: MAEGDEAARGQQPHQGLWRRRRTSDPSAAVNHVSSTTSLGENYEDDDLVNSDEVMKKPCPVQIVLAHEDDHNFELDEEALEQILLQEHIRDLNIVVVSVAGAFRKGKSFLLDFMLRYMYNKDSQSWIGGNNEPLTGFTWRGGCERETTGIQVWNEVFVIDRPNGTKVAVLLMDTQGAFDSQSTIKDCATVFALSTMTSSVQVYNLSQNIQEDDLQHLQLFTEYGRLAMEEIYQKPFQTLMFLIRDWSYPYEHSYGLEGGKQFLEKRLQVKQNQHEELQNVRKHIHNCFSNLGCFLLPHPGLKVATNPSFDGRLKDIDEDFKRELRNLVPLLLAPENLVEKEISGSKVTCRDLVEYFKAYIKIYQGEELPHPKSMLQATAEANNLAAVAGARDTYCKSMEQVCGGDKPYIAPSDLERKHLDLKEVAIKQFRSVKKMGGDEFCRRYQDQLEAEIEETYANFIKHNDGKNIFYAARTPATLFA

Assay [1] concerns the target ATL2-1 (major splice isoform of ATL2) (human, UniProt Q8NHH9 1-583). The assay can be described thus: cross-linking.
The assay “GST-tagged ATL3” concerns the target B1. The assay can be described thus: pull-down.

With B1, the binding result in assay [1] was “binds”.

As to B2, in the assay with GST-tagged ATL3, the binding result is recorded as “binds”.
